Legend:
[1] = target: HIV-1 Env of strain WITO.33 (Env-pseudotyped virus) (HIV-1)
[2] = target: CAP256 soluble Env trimer (clade C), stabilized in the prefusion-closed conformation (HIV-1); test: ELISA, lectin-captured trimer, expression supernatant, single point, OD 450 nm
[3] = target: JRFL soluble Env trimer (clade B), stabilized in the prefusion-closed conformation (HIV-1); test: as above
[4] = target: K169V variant of CAP256 soluble Env trimer (HIV-1); test: as above
[5] = target: 426C-WITO soluble Env trimer (clade B), stabilized in the prefusion-closed conformation (HIV-1); test: ELISA, lectin-captured trimer, expression supernatant, single point, OD 450 nm, column 426c-WITO-degly3

## VRC01 (antibody)
CAP256 wk34c80 (HIV-1)
  % neutralization, single point, Env-pseudotyped virus on TZM-bl: 100%
[1]
  % neutralization, single point, Env-pseudotyped virus on TZM-bl: 0%
[2]
  ELISA binding: 2.31
[3]
  ELISA binding: 2.29
[4]
  ELISA binding: 2.65
[5]
  ELISA binding: 2.53

Source: US20250197482A1
